From patent US20150266951A1 (SNU R AND DB FOUNDATION, published 2015)

B1: anti-IP-10 monoclonal antibody #129 (antibody, V domains shown)
VH: QVQLKQSGPGLVQPSQSLSITCTVSGFSLTSYGVHWVRQSPGKGLEWLGVIWSGGSTDYNAAFISRLSISKDNSKSQVFFKMNSLQANDTAIYYCARNWGAMDYWGQGTSVTVSS
VL: DIVMTQSPSSLSVSAGEKVTMSCKSSQSLLNSGNQKNYLAWYQQKPGQPPKLLIYGASTRESGVPDRFTGSGSGTDFTLTISSVQAEDLAVYYCQNDHSYPLTFGAGTKLELKR
notes: Mouse monoclonal antibody from a hybridoma; also called clone #129; clone #129 monoclonal antibody
B2: anti-IP-10 monoclonal antibody #88 (antibody, V domains shown)
VH: EVMLVESGGGLVKPGGSLKLSCTVSGFTFSGYAMSWVRQTPEKRLEWVASITSGGSYTSYPDNMKGRLTISRDNDRNTLDLQMSSLRSEDTAMYFCTRHSPVIASWFAYWGQGTLVHC
VL: DVLMTQTPLSLPVSLGDQASISCRSSQSIVHSNGNTYLEWYLQKPGQSPKLLIYKVSNRFSGVPDRFSGSGSGTDFTLKISRVEAEDMGVYYCFQGSHVPFTFGSGTKLEIKR
notes: Mouse monoclonal antibody from a hybridoma; also called clone #88; clone #88 monoclonal antibody
B3: anti-IP-10 monoclonal antibody #116 (antibody, V domains shown)
VH: QVQLQQSGPELVKPGASVKISCKASGYAFSSSWMNWVKQRPGQGLEWIGRIYPGDGDTNYNGKFKGKATLTADKSSSTAYMQLSSLTSVDSAVYFCARIGNYYGSSYLYWYFDVWGAGTTVTVS
VL: DIQMTQSPSSLSASLGGKVTITCKASQDIDKYIAWYQHRPGKGPSLLIHYTSTLQPGIPSRFSGSGSGKNYSFSISNLEPEDIATYYCLQYDNLLLTFGAGTKLELKR
notes: Mouse monoclonal antibody from a hybridoma; also called clone #116; clone #116 monoclonal antibody
B4: anti-IP-10 monoclonal antibody #77 (antibody, V domains shown)
VH: QIQLVHSGPELKKPGETVKISCKASGYTFTDYSMHWVKQAPGKGLKWMGWINTETGEPTYADDFKGRFAFSLETSASTAYLQINNLKNEDTATYFCARMYDYSYYFDYWGQGTTLTVSS
VL: DIQMTQSPASLSVSVGETVTITCRASENIYSNLAWYQQKQGKSPQLLVYAATNLADGVPSRFSGSGSGTQYSLKINSLQSEDFGSYYCQHFWGTPYTFGGGTKLEIKR
notes: Mouse monoclonal antibody from a hybridoma; also called clone #77; clone #77 monoclonal antibody

Tests used:
[1] = target: T1, recombinant human IP-10 protein (IFN-γ-inducible protein 10) (human, UniProt P02778 22-98); test: western blot on recombinant human IP-10 protein
T1 construct: also called IP-10 antigen; recombinant IP-10
T1 sequence: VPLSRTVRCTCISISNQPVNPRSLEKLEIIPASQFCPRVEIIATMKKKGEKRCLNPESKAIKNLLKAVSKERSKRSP

[2] = target: T2, Epitope 4 of IP-10 (amino acids 61-98), recombinant segment expressed in E. coli from pET41 (human); test: western blot on recombinant IP-10 segments expressed in E. coli
T2 construct: Segment cloned EcoRI/XhoI into PET41 vector and tested as lysate of the expressing E. coli in western blot; any tags from the vector are not described; not shown: vector-coded fusion part of pET41 (GST is run as the negative control)
T2 chain: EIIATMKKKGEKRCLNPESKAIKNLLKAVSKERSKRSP
Protocol: E. coli expressing each of the 4 epitopes of recombinant IP-10 was suspended in PBS buffer (137 mM NaCl, 2.7 mM KCl, 10 mM Na2HPO4, 2 mM KH2PO4) and the same volume of SDS-gel loading buffer (100 mM Tris-C1 (pH 6.8), 4% SDS, 0.2% bromophenol blue, 20% glycerol, 200 mM DTT) and heated at 100° C. for 5 min. The mixture was then centrifuged at 13,000 rpm for 10 min and the supernatant was separated on 12% SDS-PAGE, and the proteins separated on the gel were transferred to a polyvinylidenfluoride membrane. Western blot was performed using anti-IP-10 antibody and enhanced chemiluminescent reagent.

Row | Binder | binding result [1] | binding result [2]
1 | B1 | binds | binds
2 | B2 | binds | binds
3 | B3 | binds | binds
4 | B4 | binds | binds
